For experiment [1], the target named is T1, ELP-N (construct 5).
T1 construct: also called ELP intein N-fragment
The experiment is described as follows: co-precipitation with ELP-N by ammonium sulfate.

For experiment [2], the target named is T2, NC1A-CBD (construct 12).
T2 construct: free in solution in the kinetic assays
The experiment is described as follows: capture from E. coli lysate on chitin-bound NC1A-CBD, 0.5 mM ZnCl2, SDS-PAGE densitometry.
Method: Sample purification via SIRP (FIG. 14): A disposable column containing 150 μL chitin resin was loaded with soluble lysate containing NC1A-CBD in Buffer A (0.5 M NaCl, 10 mM Tris-HCl, pH 8.0) and washed 4 times with 10 column volumes (CV) of Buffer B (0.5 M NaCl, 50 mM NaPOi, pH 6.0). All loading and washing steps were performed in batch phase. The last wash was supplemented with 0.5 mM ZnCl₂. […] The column was subsequently washed with 10 CV of Buffer B with ZnCl₂ (0.5 mM) and finally incubated in 4 CV of Buffer A containing 50 mM DTT at room temperature for 30 min or at 6° C. for 3 h.

For experiment [3], the target named is T2, NC1A-CBD (construct 12). The experiment in a line: cell-based or functional assay.
Experiment [4] has as its target T1, ELP-N (construct 5). The experiment is described as follows: lysates mixed 10 min at room temperature, 0.4 M ammonium sulfate precipitation of the ELP complex, SDS-PAGE.

B1: C*-CAT (construct 9) (other)
chain: MIKIATRKYLGKQNVYGIGVERDHNFALKNGFIASNCFNASMEKKITGYTTVDISQWHRKEHFEAFQSVAQCTYNQTVQLDITAFLKTVKKNKHKFYPAFIHILARLMNAHPEFRMAMKDGELVIWDSVHPCYTVFHEQTETFSSLWSEYHDDFRQFLHIYSQDVACYGENLAYFPKGFIENMFFVSANPWVSFTSFDLNVANMDNFFAPVFTMGKYYTQGDKVLMPLAIQVHHAVCDGFHVGRMLNELQQYCDEWQGGALEHHHHHH
notes: also called C*-chloramphenicol acetyl transferase
As to B1, the binding result in the experiment with ELP-N (construct 5) [1] was “binds”.

B2: C*-PTDH (construct 6) (other)
chain: MIKIATRKYLGKQNVYGIGVERDHNFALKNGFIASNCFNASMLPKLVITHRVHEEILQLLAPHCELITNQTDSTLTREEILRRCRDAQAMMAFMPDRVDADFLQACPELRVIGCALKGFDNFDVDACTARGVWLTFVPDLLTVPTAELAIGLAVGLGRHLRAADAFVRSGKFRGWQPRFYGTGLDNATVGFLGMGAIGLAMADRLQGWGATLQYHARKALDTQTEQRLGLRQVACSELFASSDFILLALPLNADTLHLVNAELLALVRPGALLVNPCRGSVVDEAAVLAALERGQLGGYAADVFEMEDWARADRPQQIDPALLAHPNTLFTPHIGSAVRAVRLEIERCAAQNILQALAGERPINAVNRLPKANPAADLEHHHHHH
notes: also called NpuDnaE C-fragment Asp118Gly fused to phosphite dehydrogenase
Consider B2, for which the “molar ratio of bound C*-POI to NC1A-CBD” value in the experiment with NC1A-CBD (construct 12) [2] came to 0.35 molar ratio. Further, the “percent of PTDH cleaved from C*-PTDH within 30 seconds, 1:1 molar ratio, 50 mM DTT, 22 C and 6 C” value in the experiment with NC1A-CBD (construct 12) [3] was ~50%. Besides, the binding result with ELP-N (construct 5) [4] is on record as “binds”.

These data come from US20150353597A1 (TEXAS A AND M UNIVERSITY SYSTEM, published 2015).
